# Assay results as given in patent US11834553B2, “Alkoxylation methods” (priority 2009, dated 2023).
# Columns and labels:
# [1] = pH 10, 20° C., within 24 hours
# Description: (§1) Experiments were performed to determine the fate of the irinotecan-containing PEG species in 4-arm-PEG-Gly-Irino-20K under transesterification (K2CO3 in CH3OH, 20° C.) and aqueous hydrolysis (pH 10, 20° C.) conditions.
# [2] = K2CO3 in CH3OH, 20° C., after 45 minutes
# Description: as §1
# [3] = Stress stability studies of 4-arm-PEG-Gly-Irino-20K (Example 3); type: physicochemical; settings: summary of stress stability studies
# Description: The product formed in Example 1, 4-arm-PEG-Gly-Irino-20K, compound 5, (approximately 1-2 g) was weighed into PEG PE ‘whirl top’ bags and placed into another ‘whirl top’ bag in order to simulate the API packaging conditions. In one study (results shown in FIG. 1), samples were placed in an environmental chamber at 25° C./60% RH for 4 weeks. In another study, samples were placed in an environmental chamber at 40° C./75% RH for up to several months (results shown in FIG. 2 and FIG. 3). Samples were taken and analyzed on a periodic basis over the course of the studies.
substance,measurement,setting,value
pentaerythritolyl-4-arm-(PEG-1-methylene-2-oxo-vinylamino acetate linked-irinotecan) [4-arm-PEG-Gly-Irino-20K],"aqueous hydrolysis reaction, completion",[1],> 99%
same,"transesterification reaction, completion",[2],> 99%
same,overall stability compared with free base and hydrochloride salt,[3],greater stability than either the free base or hydrochloride salt
